Literature values as cited in paper PMC3471675.
Read-outs that look alike come from different tables or passages of the source. Blank lines part the entries; values can stand above or below the substance they belong to.

What was measured:
[1] = target: IL-2Rβ (Homo sapiens) (UniProt P14784)
[2] = target: IL-2Rβ (Homo sapiens) (UniProt P14784); remark: listed apart in the source
[3] = target: IL-4Rα (Homo sapiens) (UniProt P24394)
[4] = target: IL-7Rα (Homo sapiens) (UniProt P16871)
[5] = target: γc (Homo sapiens) (UniProt P31785)
[6] = target: IL-7Rα (Homo sapiens) (UniProt P16871); remark: listed apart in the source
[7] = target: IL-21Rα (Homo sapiens) (UniProt Q9HBE5)
Chain of UniProt Q9HBE5 (Q9HBE5 20-232): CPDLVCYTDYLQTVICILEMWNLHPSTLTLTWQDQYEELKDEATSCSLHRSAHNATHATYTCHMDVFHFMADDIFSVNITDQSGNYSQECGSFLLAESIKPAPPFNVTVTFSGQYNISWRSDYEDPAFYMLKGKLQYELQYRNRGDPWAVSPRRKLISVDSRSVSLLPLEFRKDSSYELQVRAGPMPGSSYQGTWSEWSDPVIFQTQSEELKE

Chain of UniProt P31785 (P31785 23-262): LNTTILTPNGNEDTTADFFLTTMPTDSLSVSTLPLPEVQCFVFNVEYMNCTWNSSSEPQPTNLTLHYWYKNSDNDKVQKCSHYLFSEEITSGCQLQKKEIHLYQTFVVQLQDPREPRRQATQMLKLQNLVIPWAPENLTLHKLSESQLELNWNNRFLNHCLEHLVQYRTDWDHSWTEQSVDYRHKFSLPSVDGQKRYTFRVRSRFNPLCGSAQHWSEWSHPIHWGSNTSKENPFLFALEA
Chain of UniProt P24394 (P24394 26-232): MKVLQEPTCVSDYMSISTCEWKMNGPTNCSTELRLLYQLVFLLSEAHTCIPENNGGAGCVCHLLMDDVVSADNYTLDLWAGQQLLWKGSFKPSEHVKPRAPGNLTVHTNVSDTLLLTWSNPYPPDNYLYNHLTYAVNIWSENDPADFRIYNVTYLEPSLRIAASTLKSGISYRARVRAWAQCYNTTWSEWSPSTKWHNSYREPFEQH

Substance: IL-2 (from UniProt P60568)
Kd [1]: 530 nM

Substance: IL-4 (from UniProt P05112)
Kd [3]: 0.15 nM

Substance: IL-7 (from UniProt P13232)
Kd [4]: 59 nM

Substance: IL-7Rα (from UniProt P16871)
Kd [5]: 3000 nM | Kd [6]: 610000 nM

Second part, the substance after the results:

Kd [2]: 3000 nM
Substance: IL-2Rβ (from UniProt P14784)

Kd [7]: 0.07 nM
Substance: IL-21 (from UniProt Q9HBE4)
